A short description of this data set: yeast display, Sf9 membrane polyspecificity reagent, FACS + sequencing; frameworks hold sequencing errors. An outline of the steps:
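Sorting gates, low and high (top ~1%), were placed on anti-HA fluorescence to track expression and on streptavidin fluorescence to track reagent binding. A clone's polyreactivity label is taken from the gate it came out of. The reagent was 10% biotinylated, detergent-solubilized Sf9 membrane, applied for 1 hour at 4 °C to galactose-induced yeast display cells.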
“QVQLVESGGGLVQAGGSLRLSCAASGSTYVSNAMGWYRQAPGKERELVAAISKSGGSTYYGDSVKGRFSISRDTAKNTVYLQMNSLKPEDTAVYYCAASPARYWYGGKEYDYWGQGTQVTVSS”: the “polyreactivity (PSR sort gate)” value is given as “high polyreactivity”.
As for “QVQLVESGGGLVQAGGSLRLSCAASGSTYYNAMGWYRQAPRKERELVAAIRFRSGSTYYADSVKGRFTISRDNAKITVYFQMNSLKPEDTAVYYCAADNKRSWRYAYNYWGQGTQVTVSS”, the entry is “high polyreactivity”; as for “QVQLVESGGGLVQAGGSLRLSCAASGSTYYRYTMGSYRQAPGKERELLAAITSGGGTDYADSVKGRFTISRDNAKNTVYLQMNSLKPEDTAVYYCAAEGSWYSYPDYDYWGQGTQVTVSS”, “low polyreactivity”.
As for “QVQLVESGGGLVQAGGSLRLSCAASGSTYYTYAMGWYRQAPGKERELVAAITYSDGDTYYADSVKGRFTISRDNAKHTVYLQMNSLKPEDTAVYYCAADYQGQPGTGNLEYWGQGTQVTVSS”, the entry is “low polyreactivity”; as for “QVQLVESGGGLVQAGGSLRLSCAASGSTYYYNAMGWYRQAPGKERELVAAIRTSGGRTYYADSVKGRFTISRDNAKNTVFLQMMSLKPEDTAVYFCADDGTDVHYTYDYWGQGTLVTVSS”, “low polyreactivity”; as for “QVQLVESGGGLVQAGGSLRLSCAASGSYLRYYAMGWYRQAAGKERELVAAISRSVTNTYYADSVKGRFTISRDYAKNTVYLQMNSLKPEDTAVDYCARVQYVRNVQYRYGGWYTRYYWGQGTQVTVSS”, “high polyreactivity”.
Then “QVQLVESGGGLVQAGGSLRLSCAASGSYLRYYAMGWYRQAPGKERELVAAISRSGTNTYYADSVKGRFTISRDNAKNTVYLQMNSLKPEDTAVYYCAARSWKRRVGRDYWGQGTQVTVSS”, with “high polyreactivity”; and “QVQLVESGGGLVQAGGSLRLSCAASGTFAGNAMGWYRQAPGKERELVAAINSGGSTNYADSVKGRFTISRDNAKNTVYLQMKSLKPEDTAVYYCAADSVWSPVDYDYWGQGTQVTVSS”, with “low polyreactivity”; and “QVQLVESGGGLVQAGGSLRLSCAASGTFFGYAMGWYRQAPGKERELVAAITSGGSTYYADSVKGRFTISRDNAKNTVYLQMNSLKPEDTAVYYCARVYSRWSYRYDYWGQGTQVTVSS”, with “low polyreactivity”.
For the sequence “QVQLVESGGGLVQAGGSLRLSCAASGTFQSNAMGRYRPAPGKERELVAAITSGGSTNYADSVKGRFTISRDNAKNTVYLQMNSLKPEDTAVYYCAAVRRYRASRGSLYYYWGLGTQVTVSS”, the “polyreactivity (PSR sort gate)” value is “high polyreactivity”.
Then “QVQLVESGGGLVQAGGSLRLSCAASGTFSQYAMGWYRQAPGKERELVAAISQGGGSTYYADSVKGRFTISRDNAKNTVYLQMNSLKPEDTAVYYCARSRSYWGIVYGRYDYWGQGTQVTVSS”, with “high polyreactivity”; and “QVQLVESGGGLVQAGGSLRLSCAASGTFVTYMGWYRQAPGKERELVAAIRNGGSTNYADSVKGRFTISRDKAKNTVYLQMNSLKPEDTAVYYCAADRAGSIMNYWGQGTQVTVSS”, with “low polyreactivity”; and “QVQLVESGGGLVQAGGSLRLSCAASGTFYGNTMGWYRRPPGKERELVAVISIDGSTNYADSVKGRFTISRDNAKNTVYLQMNSLKPEDTAVYYCAADYWRQFRDYDYWGQGTQVTVSS”, with “low polyreactivity”.
For “QVQLVESGGGLVQAGGSLRLSCAASGTFYWNVMGWYRQAPGKEREFVASITLSGTSTYYADSVKVRFTISRDNAKNTVYLQMNSLKPEDTAVYYCAVAARWPAPVPHYYYWGQGTQVTVSS”, the “polyreactivity (PSR sort gate)” value is listed as “low polyreactivity”.
Then “QVQLVESGGGLVQAGGSLRLSCAASGTIFGSNAMGWYRQAPGKERELVAAISWRGGRTYYADSVKGRFSISRDYAKNTVYLQMYSLKPVETAVYYCAKRWRRRFVDVWSLYDYWGQGTQVTVSS”, with “low polyreactivity”.
As for “QVQLVESGGGLVQAGGSLRLSCAASGTIFKSNSMGWYRQAPGKERELVAAISNGGITNYADSVKGRFTISRDNAKNTVYLQMNSLKPEDTAVYYCATSDVREIWVDYWGQGTQVTVSS”, the entry is “low polyreactivity”; as for “QVQLVESGGGLVQAGGSLRLSCAASGTIFLANAMGWYRQAPEKERELVAAINSGDNSYYADSVKGRFTISRDNAKITVYLQINSLKPEDTAVYYCAAEYTGYFYAYEYWGQGSQVTVSS”, “high polyreactivity”.
Then “QVQLVESGGGLVQAGGSLRLSCAASGTIFRGNAMGWYRQAPGTERELVAAINKSGGSTYYADSVKGRFTISRDNAKNTVYLQMNSLKPEDTAVYYCAAVYKRLQPYGYWGQGTQVTVSS”, with “high polyreactivity”; and “QVQLVESGGGLVQAGGSLRLSCAASGTIFRRSAMGWDRQAPGKERELVATITSTDSTNYADSVKGRFTISRDNAKNTVYLQMNSLKPEDTAVYYCAKRPYHYRRNSEYYYWGQGTQVTVSS”, with “low polyreactivity”.
Regarding “QVQLVESGGGLVQAGGSLRLSCAASGTIFSLYAMGWYRQAHGKERELVAAISGSGSSTHYADSVKGRFTISRDNAKNTVYLQMNSLKPEDSAVYYCAATYWTNSYYYWGQGTQVTVSS”, the “polyreactivity (PSR sort gate)” value is “low polyreactivity”.
As for “QVQLVESGGGLVQAGGSLRLSCAASGTIFTINAMGWYRQAAGKERELVAAISWSGAHTYYADSVKGRFTISRDNAKNTVFLQMNSLKPEDTAVYYCATGYNYLERNTGYFHRFDYWGQGTQVTVSS”, the entry is “low polyreactivity”.
Then “QVQLVESGGGLVQAGGSLRLSCAASGTIFVLYAMGWYRQAPGKERELVAAITTGGGTNYADSVKGRFTISRDNEKNTVYLQMNRLKPEDTAVYYCAADTGWYDDWTHDYWGQGTQVTVSS”, with “low polyreactivity”; and “QVQLVESGGGLVQAGGSLRLSCAASGTIYVTNGMGWYRQAPGKERELVAVISWGGGNTYYADSVKRRFTISRDNAKNTVYLQMNILKPEDTAVYYCAADPISEFYWGVKDRYDYWGQGTQVTVSS”, with “low polyreactivity”; and “QVQLVESGGGLVQAGGSLRLSCAASGTLSRYAMGWYIQAPGKERELVAAISWTGGSTYYADSVKGRFTISRDNAKYTVYLQMNSLKPEDTAVYYCNGAWRLRGDATYGYWGQGTQVTVSS”, with “high polyreactivity”.
Then “QVQLVESGGGLVQAGGSLRLSCAASGTSGYYAMGWYRQAPGKERELVAGISIGGSTNYADSVKGRFTISRDNAKNTVYLQMNSLKPEDTAVYYCAVDGYVAFSPDRNNYWGQGTQVTLSS”, with “low polyreactivity”; and “QVQLVESGGGLVQAGGSLRLSCAASGTTFDSYAMGWYRQAPGKERELVPAITSSASTNYADSVKGRFTISRDNAKNTVYLQMNSLKPEDNAVYYCYADAYRLSFGGFTSDDEFVYWGLGTQVTVSS”, with “high polyreactivity”; and “QVQLVESGGGLVQAGGSLRLSCAASGTTFDVYAMGWSRQAPGKERELVAAITSGGTTNYADSVKGRFTISRDNAKNPVFFQMNSLKPEDTAVYYCAKDSRNVYWDYGYWGQGTQVSVSS”, with “low polyreactivity”.
In the case of “QVQLVESGGGLVQAGGSLRLSCAASGTTFDVYAMGWYRQAPGKERELVAAISTRGTRTYYADSVKGRFTISRDNAKNTVYLQMNSLKPEETAVYYCAAYVYDGETVSRFDYWGQGTQVTVSS”, the “polyreactivity (PSR sort gate)” value was “high polyreactivity”.
As for “QVQLVESGGGLVQAGGSLRLSCAASGTTFFINDLGWYRQAPGKERELVAAISWSGDSTYYPDSVKGRFTISRDNAKNTVYLQMKSLKPEDTAVYYCAADWGFVQPGWSYNYWGQGTQVTVSS”, the entry is “high polyreactivity”; as for “QVQLVESGGGLVQAGGSLRLSCAASGTTFFNNAMGWYRQAPGKERELVAAITSGRTYYADSVKGRFTISRDNAKNTVYLLMNSLKPEDTAVDYCAKDADQDADKPFQFTMDYWGQGTEVTVSS”, “low polyreactivity”.
For the sequence “QVQLVESGGGLVQAGGSLRLSCAASGTTFILNAMGWYRQAPGKDRELVATISSSDTSTYYADSVKGRFTISRDNAKNTVYLQMNSLKPEDTAVYYCNADYYTTSYLQRVFHYGVEYDYWGQGTQVTVSS”, the “polyreactivity (PSR sort gate)” value was “low polyreactivity”.
As for “QVQLVESGGGLVQAGGSLRLSCAASGTTFNAYAMGWYRQAPGKDRELVAAISTSGGRTYYADSVKGRYTISRDNAKNTVYLQMNSLKPEDTAVNYCAAVLGRSPGLNYWGQGTQVTVSS”, the entry is “high polyreactivity”.
With “QVQLVESGGGLVQAGGSLRLSCAASGTTFYHNVMGWYRQAPGKERELVASIDTGDSTNYADSVKGRFTISRDNAKNTVYLQMNSLKPEDTAVYYCNADSYPALNKRGYDYWGQGTQVTVSS”, the “polyreactivity (PSR sort gate)” value is “low polyreactivity”.
On to “QVQLVESGGGLVQAGGSLRLSCAASGTTFYKYSMGWYRQAPGKERELVAAITSRGDRTYYADSVKGRFTISRDNANNTVYLQMNSLKPEDTAVYYCAATRWRDAGHSYDYWGQGTQVTVSS”, for which the “polyreactivity (PSR sort gate)” value is “high polyreactivity”.
As to “QVQLVESGGGLVQAGGSLRLSCAASGTTFYPNAMGWYRQAPGKERELVAAISWSGGRTYYADSVKGRFTISRDNAKNTVYLQMNSLKPEDTAVYYCNRYHRTSWRAKYDYWGQGTQVTVSS”, the “polyreactivity (PSR sort gate)” value is given as “high polyreactivity”.
As for “QVQLVESGGGLVQAGGSLRLSCAASGTTLVIYAMGWYRQAPGKERELVAAINFSDGSTSYADSVKGRFTKSRDNAKNTVYLQMISLKPEDTAVYYWGQGTQVTVSS”, the entry is “low polyreactivity”.
Then “QVQLVESGGGLVQAGGSLRLSCAASGTYFGYAMGWYRQAPGKETELVAAITSGGSTYYADSVKGRFTISRDNAKNTVYLQMNSLKPEDTADYYCARVYSRWSYRYDYWGQGSQVTVSS”, with “low polyreactivity”; and “QVQLVESGGGLVQAGGSLRLSCAASGTYTNAMGWYRQAPGKERELVAAISSTVGRTYYADSVKGRFTISRDNAKNPVYLQMNSLKPEDTAVYYCATTHGRTYYYWGQGTLVTVSS”, with “high polyreactivity”.
As for “QVQLVESGGGLVQAGGSLRLSCAASGVIFDFNAMGWYRQAPGKERELAASISRSGGSTYYADSVKGRFTISRDNAKNTVYLQMNSLKPEDTAVYYCAKASKGQYRFDYWGQGTQVTVSS”, the “polyreactivity (PSR sort gate)” value is “low polyreactivity”.
As for “QVQLVESGGGLVQAGGSLRLSCAASGVTFVDYAMGWYRQAPGKERELVAAITVSGDSTYYADSVKGRFTLSRDNAKNTVYLQMNSLKPEDTAVYYCAADPGYYDGGYWGQGTQVTVSS”, the entry is “low polyreactivity”.
Then “QVQLVESGGGLVQAGGSLRLSCAASGVYAMGWYRQAPGQERELVAAITSVGSTNYADSVKGRFTISRDNAKNTVYLQMNSLKPEDTAVYYCNTDRDTDELDYWGQGTQVTVSS”, with “low polyreactivity”.

Source of the values: the nanobody polyreactivity screen of Harvey et al. (2022).
